# Test results reported in patent US7105638B1.
# Biological target: Example III polypeptide 2 (modified truncated TRP-LE - Asp-Leu hinge - Glu - salmon calcitonin Asp 15 analog) (salmon) (UniProt P01263)
substance,measurement,value
S. aureus V-8 protease (from UniProt P0C1U8) (enzyme),completeness of cleavage at the Glu residue amino terminal to calcitonin,> 95%
